Test [1] deals with T1 mechanosensitive channel from Thermoplasma volcanium (Thermoplasma volcanium). Briefly: cross-linking; chemical crosslinking; the sample of T1 is not told (only T2 is shown, Figure 2 D).
For test [2], the target named is His-tagged T2 mechanosensitive channel from Thermoplasma volcanium (Thermoplasma volcanium). Briefly: cross-linking; chemical crosslinking of the T2 channel in crude membranes; ladder of five bands.
The target is the same in test [3]. Briefly: far-Western, overlay or dot blot; channel samples run on SDS-PAGE and blotted on nitrocellulose (His-tagged T1 0.1 µg, His-tagged T2 0.1 µg, tag free T2 0.01 and 0.1 µg); strips incubated with nanobody at 1 µg/ml for 1 hour, bound His-tagged nanobody detected with HisProbe-HRP; intensity ratio of lane 2 of the sample strip to the reference strip.
The target of test [4] is T1, T2 mechanosensitive channel from Thermoplasma volcanium, tag free (Thermoplasma volcanium).
T1 construct: TVN0821, gene amplified from genomic DNA (DSM 4299 [GSS1*]); 297 amino acids per monomer; Cloned into pNIC28-Bsa4 (TEV site) and pET46 (Enterokinase site); In detergent (0.03 % DDM); also called T2 channel; tag free T2-channel; source: E. coli C43(DE3), purified (DDM solubilised, IMAC, tag cleavage, second IMAC, gel filtration); not shown: His-tag, N-terminal, cleaved
T1 chain: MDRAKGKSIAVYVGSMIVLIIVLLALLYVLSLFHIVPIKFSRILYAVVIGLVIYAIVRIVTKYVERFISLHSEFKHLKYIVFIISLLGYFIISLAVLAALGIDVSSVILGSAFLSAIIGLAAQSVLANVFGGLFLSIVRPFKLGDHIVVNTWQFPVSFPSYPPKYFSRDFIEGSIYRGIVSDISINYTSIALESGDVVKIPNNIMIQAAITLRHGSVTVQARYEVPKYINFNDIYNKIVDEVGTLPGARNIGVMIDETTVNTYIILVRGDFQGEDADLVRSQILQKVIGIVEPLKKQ
Briefly: SPR; BIAcore 3000, 25 °C, 20 mM sodium phosphate pH 7.4, 150 mM NaCl, 0.03 % DDM; T2 channel amine-coupled on CM5 (1500 - 2000 RU); nanobodies 0.35 - 86.1 nM injected in triplicates; global fit to a simple bimolecular model, KD = kd/ka. The settings on record: both partners purified. Background: In SPR one partner is held on a chip, and binding of the other changes the refractive index at the surface.

The stoichiometry N is a count of units in the complex or per binding partner. In the case of “T1 mechanosensitive channel from Thermoplasma volcanium (natural protein)”, in test [1], the stoichiometry N turned out to be 5.

As for “His-tagged T2 mechanosensitive channel from Thermoplasma volcanium (natural protein)”, the stoichiometry N in test [2] was determined as 5.

B1: nanobody 14 (VHH)
VHH: QVQLQESGGGLVQPGGSLRLSCAASGSIFSINSMDWYRQAPGKQRELVATITSGGSTNYADSVKGRFTISRDNAKNTVYLQMNSLKPEDTAVYLCHAVVATRGGYWGQGTQVTVSS
notes: pHEN6 vector; also called Nb 14; CA-number 3396; source: E. coli WK6 periplasm, purified (IMAC, gel filtration); not shown: His-tag, C-terminal, kept
The Kd is the equilibrium constant for the complex coming apart. A lower Kd goes with tighter binding. Usually koff stands for a measure of how fast the partners let go of each other. The kon is a measure of how fast the partners come together. Read a high kon as fast association. On to B1, for which the ratio of WB intensities in test [3] amounted to 6.07. In test [4], this molecule showed an equilibrium dissociation constant (Kd) of 2.6 nM, a koff of 0.0023 s⁻¹ and a kon of 880000 M⁻¹ s⁻¹.

B2: nanobody 13 (VHH)
VHH: QVQLQESGGGLVQPGGSLRLSCAASGSISRINHMGWYRQPPGKQRELVAVITSGGSTNYADSVKGRFTISRGNYQNTVYLQMNSLKAEDTAVYYCNAYTEFDRPYNHWGQGTQVTVSS
notes: pHEN6 vector; also called Nb 13; CA-number 3395; source: E. coli WK6 periplasm, purified (IMAC, gel filtration); not shown: His-tag, C-terminal, kept
As to B2, the ratio of WB intensities in test [3] was 15.1. In test [4], this molecule returned a dissociation constant (Kd) of 0.61 nM, an off-rate constant (koff) of 0.00088 s⁻¹ and an on-rate constant (kon) of 1.46e+06 M⁻¹ s⁻¹.

B3: nanobody 15 (VHH)
VHH: QVQLQESGGGLVQPGGSLRLSCAASGSISTINHMGWYRQPPGKQRELVAVITRSGSTNYADSVKGRFTISRGNVKNTVYLQMNSVKAEDTAVYYCNAYTEFDRPYNHWGQGTQVTVSS
notes: pHEN6 vector; also called Nb 15; CA-number 3397; source: E. coli WK6 periplasm, purified (IMAC, gel filtration); not shown: His-tag, C-terminal, kept
For B3, the ratio of WB intensities in test [3] came out at 25.7. In test [4], this molecule had a Kd of 0.057 nM, a koff of 0.00011 s⁻¹ and an on-rate constant (kon) of 1.96e+06 M⁻¹ s⁻¹.

B4: nanobody 16 (VHH)
VHH: QVQLQESGGGLVQPGGSLTLSCAASGSPFSFGAMGWYRQAPGKQRELVAIITSGGSTNYADSVKGRFTVSRDNAKNTVYLQMNSLKPEDTAVYYCYHQTAPVADVTWGQGTQVTVSS
notes: pHEN6 vector; also called Nb 16; CA-number 3398; source: E. coli WK6 periplasm, purified (IMAC, gel filtration); not shown: His-tag, C-terminal, kept
Regarding B4, the ratio of WB intensities in test [3] came to 1.98. In test [4], the affinity, expressed as Kd, was 7.4 nM; the koff turned out to be 0.0055 s⁻¹; the kon is 750000 M⁻¹ s⁻¹.

The values above are taken from PMC3804602, “Nanobody Mediated Crystallization of an Archeal Mechanosensitive Channel” (PLoS ONE, 2013).
